For 8 substances, fold restriction of single-cycle HIV-1 infection in CRFK cells stably expressing the TRIM fusion, against the negative control, fold change of restriction of single-cycle HIV-1 infection in CRFK cells stably expressing the TRIM fusion, against gorilla TRIM-RanCyp and fold decrease in fold change of restriction of single-cycle HIV-1 infection in CRFK cells stably expressing the TRIM fusion, against human TRIM-RanCyp results are on record in publication PMC5843284.

Assay [1] deals with HIV-1 group M capsid (HIV-1 group M).
For assay [2] the target is unchanged. The source holds these as a separate data set.

As for marmoset TRIM-RanCyp, the fold restriction of single-cycle HIV-1 infection in CRFK cells stably expressing the TRIM fusion, against the negative control in assay [1] worked out at 100 fold. On the same count and under the same terms, the value for titi monkey TRIM-RanCyp was 100 fold. In assay [2], “gorilla TRIM-RanCyp with the human residue 75G” showed a fold change of restriction of single-cycle HIV-1 infection in CRFK cells stably expressing the TRIM fusion, against gorilla TRIM-RanCyp of 35 fold. Regarding gorilla TRIM-RanCyp, the fold restriction of single-cycle HIV-1 infection in CRFK cells stably expressing the TRIM fusion, against the negative control in assay [1] was 2 fold. In assay [1], orangutan TRIM-RanCyp had a fold restriction of single-cycle HIV-1 infection in CRFK cells stably expressing the TRIM fusion, against the negative control of 100 fold. “human TRIM-RanCyp with the gorilla residue 75R” returned a fold decrease in fold change of restriction of single-cycle HIV-1 infection in CRFK cells stably expressing the TRIM fusion, against human TRIM-RanCyp in assay [2] of 70 fold. In turn, red-capped mangabey TRIM-RanCyp displayed a fold restriction of single-cycle HIV-1 infection in CRFK cells stably expressing the TRIM fusion, against the negative control in assay [1] of 100 fold.

On to chimpanzee TRIM-RanCyp, for which the fold restriction of single-cycle HIV-1 infection in CRFK cells stably expressing the TRIM fusion, against the negative control in assay [1] is 100 fold.
